Positions of bridges follow the written chain, without caps; N, C: chain ends. Non-standard residues stand in square brackets, D forms with d. No end group written: not given here. *: point of attachment. Acetyl(2-(4-imidazolyl)) = O=C(Cc1c[nH]cn1)*; Aib = CC(C)(N)C(=O)O
molecular target: T1, human GIP receptor (human, UniProt P48546 22-466); assay: cell-based or functional assay
T1 sequence (looked up): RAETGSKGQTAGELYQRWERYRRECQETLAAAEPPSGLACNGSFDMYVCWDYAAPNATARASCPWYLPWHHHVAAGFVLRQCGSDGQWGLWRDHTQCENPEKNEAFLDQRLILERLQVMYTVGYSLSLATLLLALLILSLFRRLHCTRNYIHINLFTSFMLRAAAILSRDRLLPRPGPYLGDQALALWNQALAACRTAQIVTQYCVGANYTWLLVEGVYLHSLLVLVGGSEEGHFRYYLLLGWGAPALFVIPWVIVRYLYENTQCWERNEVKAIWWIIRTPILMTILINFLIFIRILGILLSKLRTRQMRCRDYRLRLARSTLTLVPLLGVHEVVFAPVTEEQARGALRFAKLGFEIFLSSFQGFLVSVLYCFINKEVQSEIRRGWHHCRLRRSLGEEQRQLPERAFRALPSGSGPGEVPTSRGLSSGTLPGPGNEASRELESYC

Row | Binder | In vitro activity relative to native peptide (%), vs. GIP (cAMP EC50)
1 | Y[Aib]QGTFTSDYSKYLDEKRAKEFVQWLLDCHPSSGQPPPS (bridge 16-20) [trigonal agonist of SEQ ID NO: 97] | 2.6%
2 | Y[Aib]QGTFTSDYSKALDEKAAKEFVNWLLDHHPSSGQPPPSC (bridge 16-20) [trigonal agonist of SEQ ID NO: 98] | 47.1%
3 | Y[Aib]QGTFTSDYSKALDEKAAKDFVNWLLDHHPSSGQPPPSC (bridge 16-20) [trigonal agonist of SEQ ID NO: 99] | 57.7%
4 | Y[Aib]QGTFTSDYSKALDEKAAKEFVQWLLDQHPSSGQPPPSC (bridge 16-20) [trigonal agonist of SEQ ID NO: 100] | 118%
5 | Y[Aib]QGTFTSDYSKALDEKAAKEFVNWLLDQHPSSGQPPPSC (bridge 16-20) [trigonal agonist of SEQ ID NO: 101] | 40.1%
6 | Y[Aib]QGTFTSDYSKALDEKAAKDFVNWLLDQHPSSGQPPPSC (bridge 16-20) [trigonal agonist of SEQ ID NO: 102] | 58%
7 | {Acetyl(2-(4-imidazolyl))}-GEGTFTSDLSKYLDSRRQQLFVQWLKAGGPSSGAPPPSHG [trigonal agonist of SEQ ID NO: 11] | < 0.1%
8 | {Acetyl(2-(4-imidazolyl))}-GEGTFISDLSKYMDEQAVQLFVEWLMAGGPSSGAPPPSHG [trigonal agonist of SEQ ID NO: 12] | < 0.1%
9 | {Acetyl(2-(4-imidazolyl))}-GEGTFISDYSIQLDEIAVQDFVEWLLAQKPSSGAPPPSHG [trigonal agonist of SEQ ID NO: 13] | < 0.1%
10 | H[Aib]QGTFTSDVSSYLDGQAQKEFIAWLVKGC [trigonal agonist of SEQ ID NO: 2] | < 0.1%
11 | {Acetyl(2-(4-imidazolyl))}-GQGTFTSDYSIQLDEIAVRDFVEWLKNGGPSSGAPPPSHG [trigonal agonist of SEQ ID NO: 14] | < 0.1%
12 | {Acetyl(2-(4-imidazolyl))}-GQGTFTSDLSKQMDSEAQQLFIEWLKNGGPSSGAPPPSHG [trigonal agonist of SEQ ID NO: 16] | < 0.1%
13 | {Acetyl(2-(4-imidazolyl))}-GQGTFTSDLSKQMDEERAREFIEWLLAQKPSSGAPPPSHG [trigonal agonist of SEQ ID NO: 17] | < 0.1%
14 | {Acetyl(2-(4-imidazolyl))}-GQGTFTSDLSKQMDSERAREFIEWLKNTGPSSGAPPPSHG [trigonal agonist of SEQ ID NO: 18] | < 0.1%

molecular target: human GCG receptor (human, UniProt P47871 26-477); assay: cell-based or functional assay
Sequence (P47871 26-477): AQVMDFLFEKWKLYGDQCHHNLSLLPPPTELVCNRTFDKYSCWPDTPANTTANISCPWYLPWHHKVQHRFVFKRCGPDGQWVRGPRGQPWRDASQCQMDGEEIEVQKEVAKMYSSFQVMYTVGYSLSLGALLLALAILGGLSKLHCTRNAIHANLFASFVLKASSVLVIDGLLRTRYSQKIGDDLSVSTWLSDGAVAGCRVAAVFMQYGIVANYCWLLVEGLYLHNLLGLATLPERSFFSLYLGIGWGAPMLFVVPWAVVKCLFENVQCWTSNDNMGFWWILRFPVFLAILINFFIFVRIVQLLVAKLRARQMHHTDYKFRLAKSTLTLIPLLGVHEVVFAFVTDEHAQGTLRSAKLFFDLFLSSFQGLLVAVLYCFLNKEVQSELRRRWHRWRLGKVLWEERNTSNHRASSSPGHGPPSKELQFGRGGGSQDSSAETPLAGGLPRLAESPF

Row | Binder | In vitro activity relative to native peptide (%), vs. Glucagon (cAMP EC50)
15 | Y[Aib]QGTFTSDYSKYLDEKRAKEFVQWLLDCHPSSGQPPPS (bridge 16-20) [trigonal agonist of SEQ ID NO: 97] | 62.8%
16 | Y[Aib]QGTFTSDYSKALDEKAAKEFVNWLLDHHPSSGQPPPSC (bridge 16-20) [trigonal agonist of SEQ ID NO: 98] | 8.2%
17 | Y[Aib]QGTFTSDYSKALDEKAAKDFVNWLLDHHPSSGQPPPSC (bridge 16-20) [trigonal agonist of SEQ ID NO: 99] | 14.9%
18 | Y[Aib]QGTFTSDYSKALDEKAAKEFVQWLLDQHPSSGQPPPSC (bridge 16-20) [trigonal agonist of SEQ ID NO: 100] | 12.7%
19 | Y[Aib]QGTFTSDYSKALDEKAAKEFVNWLLDQHPSSGQPPPSC (bridge 16-20) [trigonal agonist of SEQ ID NO: 101] | 13.9%
20 | Y[Aib]QGTFTSDYSKALDEKAAKDFVNWLLDQHPSSGQPPPSC (bridge 16-20) [trigonal agonist of SEQ ID NO: 102] | 29.5%
21 | {Acetyl(2-(4-imidazolyl))}-GEGTFTSDLSKYLDSRRQQLFVQWLKAGGPSSGAPPPSHG [trigonal agonist of SEQ ID NO: 11] | < 0.1%
22 | {Acetyl(2-(4-imidazolyl))}-GEGTFISDLSKYMDEQAVQLFVEWLMAGGPSSGAPPPSHG [trigonal agonist of SEQ ID NO: 12] | < 0.1%
23 | {Acetyl(2-(4-imidazolyl))}-GEGTFISDYSIQLDEIAVQDFVEWLLAQKPSSGAPPPSHG [trigonal agonist of SEQ ID NO: 13] | < 0.1%
24 | H[Aib]QGTFTSDVSSYLDGQAQKEFIAWLVKGC [trigonal agonist of SEQ ID NO: 2] | < 0.1%
25 | {Acetyl(2-(4-imidazolyl))}-GQGTFTSDYSIQLDEIAVRDFVEWLKNGGPSSGAPPPSHG [trigonal agonist of SEQ ID NO: 14] | < 0.1%
26 | {Acetyl(2-(4-imidazolyl))}-GQGTFTSDLSKQMDSEAQQLFIEWLKNGGPSSGAPPPSHG [trigonal agonist of SEQ ID NO: 16] | < 0.1%
27 | {Acetyl(2-(4-imidazolyl))}-GQGTFTSDLSKQMDEERAREFIEWLLAQKPSSGAPPPSHG [trigonal agonist of SEQ ID NO: 17] | < 0.1%
28 | {Acetyl(2-(4-imidazolyl))}-GQGTFTSDLSKQMDSERAREFIEWLKNTGPSSGAPPPSHG [trigonal agonist of SEQ ID NO: 18] | < 0.1%

molecular target: human GLP-1 receptor (human, UniProt P43220 24-463); assay: cell-based or functional assay

Row | Binder | In vitro activity relative to native peptide (%), vs. GLP-1 (cAMP EC50)
29 | Y[Aib]QGTFTSDYSKYLDEKRAKEFVQWLLDCHPSSGQPPPS (bridge 16-20) [trigonal agonist of SEQ ID NO: 97] | 10.5%
30 | Y[Aib]QGTFTSDYSKALDEKAAKEFVNWLLDHHPSSGQPPPSC (bridge 16-20) [trigonal agonist of SEQ ID NO: 98] | 28.1%
31 | Y[Aib]QGTFTSDYSKALDEKAAKDFVNWLLDHHPSSGQPPPSC (bridge 16-20) [trigonal agonist of SEQ ID NO: 99] | 20.9%
32 | Y[Aib]QGTFTSDYSKALDEKAAKEFVQWLLDQHPSSGQPPPSC (bridge 16-20) [trigonal agonist of SEQ ID NO: 100] | 42.2%
33 | Y[Aib]QGTFTSDYSKALDEKAAKEFVNWLLDQHPSSGQPPPSC (bridge 16-20) [trigonal agonist of SEQ ID NO: 101] | 23.2%
34 | Y[Aib]QGTFTSDYSKALDEKAAKDFVNWLLDQHPSSGQPPPSC (bridge 16-20) [trigonal agonist of SEQ ID NO: 102] | 23.3%
35 | {Acetyl(2-(4-imidazolyl))}-GEGTFTSDLSKYLDSRRQQLFVQWLKAGGPSSGAPPPSHG [trigonal agonist of SEQ ID NO: 11] | 1.4%
36 | {Acetyl(2-(4-imidazolyl))}-GEGTFISDLSKYMDEQAVQLFVEWLMAGGPSSGAPPPSHG [trigonal agonist of SEQ ID NO: 12] | 0.4%
37 | {Acetyl(2-(4-imidazolyl))}-GEGTFISDYSIQLDEIAVQDFVEWLLAQKPSSGAPPPSHG [trigonal agonist of SEQ ID NO: 13] | < 0.1%
38 | H[Aib]QGTFTSDVSSYLDGQAQKEFIAWLVKGC [trigonal agonist of SEQ ID NO: 2] | 5.9%
39 | {Acetyl(2-(4-imidazolyl))}-GQGTFTSDYSIQLDEIAVRDFVEWLKNGGPSSGAPPPSHG [trigonal agonist of SEQ ID NO: 14] | 28%
40 | {Acetyl(2-(4-imidazolyl))}-GQGTFTSDLSKQMDSEAQQLFIEWLKNGGPSSGAPPPSHG [trigonal agonist of SEQ ID NO: 16] | 2.1%
41 | {Acetyl(2-(4-imidazolyl))}-GQGTFTSDLSKQMDEERAREFIEWLLAQKPSSGAPPPSHG [trigonal agonist of SEQ ID NO: 17] | 0.2%
42 | {Acetyl(2-(4-imidazolyl))}-GQGTFTSDLSKQMDSERAREFIEWLKNTGPSSGAPPPSHG [trigonal agonist of SEQ ID NO: 18] | < 0.1%

— patent US20230390362A1, “USE OF TRIGONAL AGONIST HAVING ACTIVITIES TO ALL OF GLUCAGON, GLP-1, AND GIP RECEPTORS IN TREATMENT OF SEQUELAE FOLLOWING RESPIRATORY INFECTIOUS DISEASES” (HANMI PHARM. CO., LTD., priority 2020, published 2023)
